Laboratory results: US20140072563A1 (Regeneron, published 2014)

T1: ErbB3-mFc (human)
T1 construct: Dimeric soluble ErbB3; also called hErbB3.mFc
T1 chain: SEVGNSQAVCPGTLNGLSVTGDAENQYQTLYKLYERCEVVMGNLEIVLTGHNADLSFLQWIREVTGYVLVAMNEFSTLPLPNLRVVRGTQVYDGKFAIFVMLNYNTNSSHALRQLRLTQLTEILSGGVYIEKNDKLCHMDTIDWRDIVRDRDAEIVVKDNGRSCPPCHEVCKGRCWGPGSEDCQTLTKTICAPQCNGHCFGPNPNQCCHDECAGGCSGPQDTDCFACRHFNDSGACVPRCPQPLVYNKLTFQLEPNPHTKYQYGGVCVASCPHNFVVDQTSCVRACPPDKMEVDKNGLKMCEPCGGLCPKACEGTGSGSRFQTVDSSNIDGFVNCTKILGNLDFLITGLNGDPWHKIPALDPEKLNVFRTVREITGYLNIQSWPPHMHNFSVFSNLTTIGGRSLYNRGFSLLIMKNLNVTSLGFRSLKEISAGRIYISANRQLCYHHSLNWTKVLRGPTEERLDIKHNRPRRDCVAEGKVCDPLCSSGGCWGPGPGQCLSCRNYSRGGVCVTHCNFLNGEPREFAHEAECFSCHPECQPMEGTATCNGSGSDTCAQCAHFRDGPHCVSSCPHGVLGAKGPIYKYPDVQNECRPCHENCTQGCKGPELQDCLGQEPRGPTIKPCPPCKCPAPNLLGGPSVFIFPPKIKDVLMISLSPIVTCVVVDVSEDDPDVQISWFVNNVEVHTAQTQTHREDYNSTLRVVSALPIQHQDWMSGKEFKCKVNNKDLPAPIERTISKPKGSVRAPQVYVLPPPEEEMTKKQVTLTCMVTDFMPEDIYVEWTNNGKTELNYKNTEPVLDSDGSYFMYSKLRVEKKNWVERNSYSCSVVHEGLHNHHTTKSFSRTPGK

T2: hErbB3.mFc (soluble dimeric human ErbB3 extracellular domain fused to mouse Fc) (human)
T2 construct: called dimeric
T2 chain: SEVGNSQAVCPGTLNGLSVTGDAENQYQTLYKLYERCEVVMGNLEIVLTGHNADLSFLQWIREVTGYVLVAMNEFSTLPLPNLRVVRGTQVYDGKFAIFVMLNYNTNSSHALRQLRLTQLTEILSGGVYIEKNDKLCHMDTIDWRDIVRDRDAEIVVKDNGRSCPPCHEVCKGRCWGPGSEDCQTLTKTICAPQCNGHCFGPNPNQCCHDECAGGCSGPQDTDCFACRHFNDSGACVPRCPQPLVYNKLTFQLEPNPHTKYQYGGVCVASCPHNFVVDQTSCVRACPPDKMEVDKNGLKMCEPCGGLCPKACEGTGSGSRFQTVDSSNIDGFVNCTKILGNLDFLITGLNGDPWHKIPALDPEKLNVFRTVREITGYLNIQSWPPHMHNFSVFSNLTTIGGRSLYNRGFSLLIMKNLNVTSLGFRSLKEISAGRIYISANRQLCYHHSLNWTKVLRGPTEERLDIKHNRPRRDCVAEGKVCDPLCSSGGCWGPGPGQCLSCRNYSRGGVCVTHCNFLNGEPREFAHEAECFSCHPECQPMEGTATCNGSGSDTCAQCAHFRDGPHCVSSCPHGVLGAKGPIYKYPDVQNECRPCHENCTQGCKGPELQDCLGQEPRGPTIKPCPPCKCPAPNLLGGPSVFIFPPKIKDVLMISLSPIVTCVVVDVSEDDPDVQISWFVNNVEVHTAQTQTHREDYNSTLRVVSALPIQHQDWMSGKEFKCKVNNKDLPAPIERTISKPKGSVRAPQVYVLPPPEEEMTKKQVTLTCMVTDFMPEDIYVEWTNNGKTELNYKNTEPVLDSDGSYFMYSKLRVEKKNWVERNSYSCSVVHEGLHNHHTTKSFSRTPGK


What was measured:
ErbB3-mFc = target: T1, ErbB3-mFc; experiment: blocking ELISA: antibody (0-50 nM) + 50 pM ErbB3-mFc, binding to coated neuregulin1b
From the text: To further characterize anti-hErbB3 mAbs of the present invention, their ability to block ligand binding was examined via ELISA. […] Plates were washed and non-sequestered (plate bound) ErbB3 was detected with an anti-Fc poly conjugated with horseradish peroxidase (HRP). Plates were developed with TMB (3,3′,5,5′-tetramethylbenzidine) and neutralized with sulfuric acid before reading absorbance at 450 nm on a Victor X5 plate reader. Data analysis used a sigmoidal dose-response model within Prism™ software. […] Maximal blocking for each antibody was calculated by taking the difference in absorbance from zero to 50 nM antibody on the inhibition curve, divided by the difference in absorbance from 50 pM to zero ErbB3 on the dose curve.

[1] = target: hErbB3.mmh (soluble monomeric human ErbB3 extracellular domain with C-terminal myc-myc-hexahistidine tag) (human, UniProt P21860 20-642); experiment: SPR (Biacore), 25 C, mAb capture format
Procedure: (§1) (Tables 2-4). Measurements were conducted on a Biacore 2000 or T100 instrument. […] Kinetic association (kₐ) and dissociation (kd) rate constants were determined by processing and fitting the data to a 1:1 binding model using Scrubber 2.0 curve fitting software.

[2] = target: T2, hErbB3.mFc (soluble dimeric human ErbB3 …); experiment: SPR (Biacore), 25 C, mAb capture format
Procedure: as §1

IC50 (ErbB3-mFc) [nM] | Maximal Blocking (%) (ErbB3-mFc) | Kd [1] [nM] | T½ [1] [h] | koff [1] [s⁻¹] | kon [1] [M⁻¹ s⁻¹] | Kd [2] [nM] | T½ [2] [h] | koff [2] [s⁻¹] | kon [2] [M⁻¹ s⁻¹] | Binder
0.116 | 91 |  |  |  |  |  |  |  |  | H4H2108P (antibody, human IgG4, V domains shown, Human IgG4 Fc (prefix H4H)) VH: EVQLLESGGDLVQPGGSLRLSCATSGFSFSSDAMNWVRQAPGKGLEWVSGISGSGGNTYYADSVKGRFTISRDISKSTLSLQMNSLRAEDTAVYYCAKEGTNMVRGVVMEDNGMDVWGQGTTVTVSA VL: DIQMTQSPSSVSASVGDRVTITCRASQGISDYLAWYQQKPGKAPKLLIYAASSLQSGVPSRFSGRGSGTDFTLTISTLQPEDFATYYCQQANSFPLTFGGGTKVDIKR
 |  | 0.0117 | 5.18 | 3.43e-05 | 2.94e+06 | 0.000337 | 143 | 1.24e-06 | 3.67e+06 | H4H2153P (antibody, V domains shown, Fully human, human IgG4 Fc (H4H prefix)) VH: QVQLVQSGAEVKKPGASVKVSCKASGYTFTRYGISWVRQAPGLGLEWMGWISAYDGYTNFAQKFQGRFTMTTDTSTNTAYMELRGLRSDDTAVYYCAREEEDAAFDIWGQGTMVTVSS VL: not shown

The remaining lines, values behind:

Binder | IC50 (ErbB3-mFc) [nM] | Maximal Blocking (%) (ErbB3-mFc) | Kd [1] [nM] | T½ [1] [h] | koff [1] [s⁻¹] | kon [1] [M⁻¹ s⁻¹] | Kd [2] [nM] | T½ [2] [h] | koff [2] [s⁻¹] | kon [2] [M⁻¹ s⁻¹]
H4H2148P (antibody, V domains shown, Fully human, human IgG4 Fc (H4H prefix)) VH: EVQLVESGGGLVHPGRSLRLSCAASGFTFDDYAMHWVRQSPGKGLEWVSGISWNSVIKHSTDSVRGRFTISRDNAKNSLYLQMNSLKPEDTAFYYCAKDEDDWNYLDYWGQGTLVTVSS VL: DIQMTQSPSSVSASVGDRVTITCRASQDINSWLAWYQQKPGKAPKLLIYTSSNLQSGVPSRFSGSGSGTDFTLTISSLQPEDFATYYCQQSDSFPFTFGPGTKVDIKR |  |  | 0.00871 | 5.12 | 3.47e-05 | 3.98e+06 | 0.000295 | 102 | 1.74e-06 | 5.91e+06
H4H2154P (antibody, V domains shown, Fully human, human IgG4 Fc (H4H prefix)) VH: QVQLQESGPGLINPSQTLSVTCTVSGGSISSGGYYWTWIRQHPGKGLEWIGYISYSGNTNYNPSLKSRVTISVDTAKNQFSLKLSSVTAADTAVYFCARDSDVDTAMVDGIDIWGQGTMVTVSS VL: DIQMTQSPSSVSASVGDRVTITCRASQDISSWLAWYQQKPGRAPKLLIYTASSLQSGVPSRFSGSGSGTDFTLTISSLQPEDFATYFCQQANSFPFTFGPGTKVDIKR |  |  | 0.0176 | 4.75 | 3.73e-05 | 2.13e+06 | 0.0003 | 182 | 9.77e-07 | 3.25e+06
H4H1819N (antibody, human IgG4, V domains shown, Human IgG4 Fc (prefix H4H)) VH: EVQLVESGGGVVRPGGSLRLSCAASGFTFDDYAMHWVRQAPGKGLEWVAGISWNSGSIDYADSVKGRFTISRDNAKNSLYLQMNSLRAGDTALYYCAKDILDLDYYGLDVWGQGTTVTVSS VL: DIQMTQSPSSLSASVGDRVTITCRASQDISSYLAWYQQKPGKVPNLLIYDASSLQSGVPSRFSGSGSGTDFTLTLSSLQPEDFASYYCQNYNSAPYTFGQGTKLEIK | 0.02 | 99 |  |  |  |  |  |  |  | 
H4H2151P (antibody, V domains shown, Fully human, human IgG4 Fc (H4H prefix)) VH: QVQLVESGGGVVQPGRSLRLSCAASGFTFSNYGMHWVRQAPGKGLEWVARIWYDGSNKYYADSVKGRFTISRDSSKNTLYLQMNSLRAEDTAVYYCAREGEQNLDYYPLDVWGQGTTVTVSS VL: DIVMTQSPSSLSASVGDRVTITCRASQDIRNDLGWYQQKPGKAPKLLIYAASSLQTGVPSRFSGSVSGTDFTLTISSLQPEDFATYYCLQDYTYPLTFGGGTKVEIK |  |  | 0.00942 | 6.2 | 2.86e-05 | 3.04e+06 | 0.000213 | 186 | 9.52e-07 | 4.48e+06
H4H2290P (antibody, V domains shown, Fully human, human IgG4 Fc (H4H prefix)) VH: EVQLLESGGGLVQPGGSLRLSCVASGFTFSSFAMSWVRQAPGKGLEWVSVISGSGGSTNHADSVRGRFTISRDNSLNTVYLQMHSLRAEDTALYYCVKAETSSSYFYYGMDVWGQGTTVTVSS VL: DIQLTQSPSFLSASVGDRVTITCWASQDISSYLAWYQQKPGKVPNLLIYGASSLQPGVPSRFSGSGSGTEFTLTISSLQPEDFATYYCQQLNNYPTFGGGTKLEIKR |  |  | 0.115 | 2.65 | 6.72e-05 | 582000 | 0.014 | 15.8 | 1.13e-05 | 800000
